Results as given in patent US20250277057A1 (OKLAHOMA MEDICAL RESEARCH FOUNDATION, published 2025).
Positions count from the first letter of the chain named.

B1: HAPC-14-1 (antibody, V domains shown)
VH: EVQLVESGGGLVQPGGSLRLSCAASGFTFSFYYLNWVRQAPGKGLEWVGDIRLKSNNYEKHYAESVKGRFTISRDDSKSITYLQMNSLRAEDTAVYYCAREGDYFDYWGQGTTVTVSS
VL: DIQLTQSPSSLSASVGDRVTITCRASESVDSFGATFMHWYQQKPGKAPKLLIYLASWLGSGVPSRFSGSGSGTDFTLTISSLQPEDFATYYCQQNNEDPYTFGQGTKLEIK
notes: Whole IgG, backbone hIgG1; also called HPAC14-1
B2: HAPC-14-5 (antibody, V domains shown)
VH: B1 VH with S55K
VL: B1 VL with Q93V
notes: Whole IgG, backbone hIgG1; also called HPAC 14-5
B3: HAPC-14-8 (antibody, V domains shown)
VH: B1 VH with S55K, Y104T
VL: B1 VL with W57R, Q93V
notes: Whole IgG, backbone hIgG1; also called HPAC 14-8
B4: HAPC-14-2 (antibody, V domains shown)
VH: B1 VH with S55K
VL: B1 VL with G59E, Q93V
notes: Whole IgG, backbone hIgG1; also called HPAC 14-2
B5: HAPC-14-7 (antibody, V domains shown)
VH: B1 VH
VL: B1 VL with W57R, G59E
notes: Whole IgG, backbone hIgG1; also called HPAC 14-7
B6: HAPC-14-4 (antibody, V domains shown)
VH: B1 VH
VL: B1 VL with W57R, Q93V
notes: Whole IgG, backbone hIgG1; also called HPAC 14-4
B7: HAPC-14-10 (antibody, V domains shown)
VH: B1 VH with F31N, S55K, Y104T
VL: B1 VL with W57R, Q93V
notes: Whole IgG, backbone hIgG1; also called HPAC 14-10
B8: HAPC-14-9 (antibody, V domains shown)
VH: B1 VH with S55K, Y104T
VL: B1 VL with W57R
notes: Whole IgG, backbone hIgG1; also called HPAC 14-9

Tests used:
[1] = molecular target: T1, human activated protein C (human, UniProt P04070 43-197; P04070 212-461); assay: cell-based or functional assay
human protein C [2] = molecular target: T2, human protein C (human, UniProt P04070 43-461); assay: ELISA on plate-coated HPC, OD450
T2 construct: Zymogen form, coated on ELISA plates; also called hPC; PC
Procedure: (§1) The binding abilities of the anti-aPC monoclonal antibodies to haPC/hPC were assayed by Elisa. […] 1. ELISA plates were coated with haPC/hPC (1 ug/mL in PBS), 100 μL/well, at 4° C. overnight. […] 2. The plates were washed 3 times with PBST (0.1% Tween 20), 200 μL/well. […] 3. The plates were blocked with 2% BSA (PBS solution), 200 μL/well, at room temperature for 1 hour. […] 4. The plates were washed 3 times with PBST (0.1% Tween 20), 200 μL/well. […] 5. The plates were incubated with anti-aPC monoclonal antibody as primary antibody (diluted from 10 μg/mL in 2% BSA), 100 μL/well, at room temperature for 1 hour. […] 6. The plates were washed 3 times with PBST (0.1% Tween 20), 200 μL/well. [0200] 7. The plates were incubated with anti-hIgG-Fc antibody-HRP (diluted 5000-fold in 2% BSA buffer) at room temperature for 1 hour. [0201] 8. The plates were washed 6 times with PBST (0.1% Tween 20), 200 μL/well. [0202] 9. The plates were incubated with a TMB substrate (prepared from solutions A and B at 1:1 (v/v)), 100 μL/well, away from light for 10 minutes. […] 10. The reaction was quenched with HCl (1 M), 100 μL/well, and OD450 was read.

human protein C [3] = molecular target: T2, human protein C; assay: ELISA, plate coated with hPC 1 ug/mL, anti-hIgG-Fc-HRP
Procedure: as §1

[4] = molecular target: T1, human activated protein C; assay: ELISA, plate coated with haPC 1 ug/mL, anti-hIgG-Fc-HRP
Procedure: as §1

[5] = molecular target: T1, human activated protein C; assay: Octet BLI, antibody on Protein A sensor, huAPC 3.13-50 nM, 1:1 model, 25 C, pH 7.4
Procedure: Assay method: Octet analysis was carried out at 25° C. using a Protein A Octet biosensor in 1× Kinetics buffer. During the kinetics assay, the baseline step assay was run in 1× Kinetics buffer for 120 seconds, and then run for 240 seconds after the antibody was loaded to the biosensor. Next, the baseline 2 step assay was run in 1× Kinetics buffer for 120 seconds. […] The 1× Kinetics buffer was used as a blank control to show the natural dissociation of the antibody in the buffer. 10 mM glycine at pH 1.5 was used for the regeneration step. Octet data analysis software was used to calculate binding kinetics, and a 1:1 binding model was used for curve fitting.
The affinities of the mutant antibodies were assayed at pH 7.4.

Row | Binder | Mean clotting time (s), FIX-deficient plasma, APC-antibody concentration 0.5 ug/ml [1] [s] | Mean clotting time (s), FIX-deficient plasma, APC-antibody concentration 1 ug/ml [1] [s] | Mean clotting time (s), FIX-deficient plasma, APC-antibody concentration 5 ug/ml [1] [s] | Mean clotting time (s), FVIII-deficient plasma, APC-antibody concentration 0.5 ug/ml [1] [s] | Mean clotting time (s), FVIII-deficient plasma, APC-antibody concentration 1 ug/ml [1] [s] | Mean clotting time (s), FVIII-deficient plasma, APC-antibody concentration 5 ug/ml [1] [s] | binding result (human protein C [2]) | Span (human protein C [3]) | EC50 [4] [nM] | Span [4] | Kd [5] [nM] | koff [5] [s⁻¹] | kon [5] [M⁻¹ s⁻¹] | Mean clotting time (s), FIX-deficient plasma, APC-antibody concentration 0.05 ug/ml [1] [s] | Mean clotting time (s), FIX-deficient plasma, APC-antibody concentration 0.1 ug/ml [1] [s] | Mean clotting time (s), FVIII-deficient plasma, APC-antibody concentration 0.05 ug/ml [1] [s] | Mean clotting time (s), FVIII-deficient plasma, APC-antibody concentration 0.1 ug/ml [1] [s]
1 | B1 | 219 | 195 | 171 | 327 | 222 | 166 | no binding (tested: 10^2 nM) | 0.023 | 0.114 | 2.11 | 3.83 | 0.00117 | 306000 |  |  |  | 
2 | B2 | 197 | 188 | 166 | 224 | 200 | 171 | no binding (tested: 10^2 nM) | ~0.0475 | 0.0924 | 1.63 | 2.83 | 0.000911 | 322000 |  |  |  | 
3 | B3 | 276 |  |  | 190 |  |  |  | -0.00465 | 0.138 | 1.05 | 10.5 | 0.00262 | 250000 | 732 | 392 | 316 | 252
4 | B4 | 233 | 211 | 143 | 358 | 196 | 159 | no binding (tested: 10^2 nM) | 0.0104 | 0.111 | 1.77 | 3.78 | 0.00116 | 307000 |  |  |  | 
5 | B5 | 241 | 145 | 146 | 297 | 198 | 176 | no binding (tested: 10^2 nM) | ~0.00661 | 0.13 | 1.58 | 7.72 | 0.00197 | 256000 |  |  |  | 
6 | B6 | 220 | 194 | 176 | 221 | 184 | 158 | no binding (tested: 10^2 nM) | 0.157 | 0.0605 | 1.52 | 4.06 | 0.00126 | 310000 |  |  |  | 
7 | B7 | 331 | 158 |  | 254 |  |  | no binding (tested: 10^2 nM) | ~0.00145 | 0.28 | 0.745 | 19 | 0.00428 | 225000 | 733 | 596 | 415 | 309
8 | B8 | 170 |  |  | 182 |  |  | no binding (tested: 10^2 nM) | 0.012 | 0.0761 | 1.07 | 9.69 | 0.00238 | 245000 | 670 | 611 | 262 | 217
